Columns and labels:
OsICYP81A6 = test: Yeast expression system, saflufenacil metabolism (LC/MS/MS); format: in vitro ADME, rice
Source text: Rice cytochrome P450 81A6 was cloned into pESC-His yeast expression vector (Stratagene) using BamHI and SalI. Constructs were transformed into YPH500 yeast strain (Stratagene) using a Yeast Maker Transformation System from Clontech. Positive clones were selected on SD-agar plates (0.7% yeast nitrogen base without amino acids, 2% glucose, 0.13% amino acid drop-out without histidine; plates solidified with 2% agar). Bioconversion of substrates was directly assayed in yeast cells expressing the respective cytochrome P450 gene. Cells were induced in SG-His medium (same composition as SD but with galactose instead of glucose) for 18-24 h (Pompon et al., Methods in Enzymology 272:51-64 (1996); Urban et al., Eur. J. Biochem. 222:[…] (1994)). Afterwards, the BAS800H substrate was added and samples were incubated for an additional 24 h. Samples were analyzed by LC/MS/MS.

Sb01g007420.1 = test: as above; format: in vitro ADME, sorghum; conditions: yeast cells expressing Sb01g007420.1, 24 h incubation
[1] = tested on: maize, rice, and soybean transgenic systems; test: Saflufenacil tolerance in transgenic plant systems (FIG. 3 legend); format: in vivo; conditions: in one or more transgenic plant systems
transgenic maize plants = test: Maize whole plant saflufenacil spray test (T0 and T1); format: in vivo; conditions: 240 g ai/ha saflufenacil + 1% MSO at 2-4 leaf stage; rated 7 and 14 days after application
Procedure: Immature Embryo Transformation: Immature embryos were transformed according to the procedure outlined in WO2006/136596 to Peng et al. The exception was that a proportion of the embryos—25 in most cases—were placed on media containing saflufenacil and kept in the light for direct selection. The remaining embryos in each experiment were selected on Pursuit as described. Plants were tested utilizing Taqman analysis with the target being the nos terminator which is present in all constructs. Healthy looking plants were sent to the greenhouse for hardening out and subsequent spray testing. As with the BMS cells, RCB958 was utilized as a control both for transformation, saflufenacil selection, and for spray testing.
A total of 82 transgenic maize plants (2 constructs of interest and 1 control construct) were delivered to the greenhouse in tissue culture. The plants were individually transplanted into MetroMix 360 soil in 4″ pots. […]
Sixteen vectors harboring different P450 genes were tested for the ability to increase tolerance to saflufenacil in T0 maize plants. […] Injury rating was evaluated 7 and 14 days after application. FIG. 5 indicates the number of plants from each segregating event that were evaluated and scored for herbicidal injury.

T0 soybean cuttings = test: Soybean T0 cuttings saflufenacil spray test; format: in vivo, Soybean cv Williams 82; conditions: 0, 25, or 50 g ai/ha saflufenacil + 1% MSO; evaluated 7 days after treatment
Procedure: Soybean cv Williams 82 was transformed as previously described by Siminszky et al., Phytochem Rev. 5:445-458 (2006). After regeneration, transformants were transplanted to soil in small pots, placed in growth chambers (16 hr day/8 hr night; 25° C. day/23° C. night; 65% relative humidity; 130-150 μE m^−2 s^−1) and subsequently tested for the presence of the T-DNA via Taqman analysis. After a few weeks, healthy, transgenic positive, single copy events were transplanted to larger pots and allowed to grow in the growth chamber. An optimal shoot for cutting was about 3-4″ tall, with at least two nodes present. Each cutting was taken from the original transformant (mother plant) and dipped into rooting hormone powder (indole-3-butyric acid, IBA). The cutting was then placed in oasis wedges inside a bio-dome. The mother plant was taken to maturity in the greenhouse and harvested for seed. Wild type cuttings were also taken simultaneously to serve as negative controls. The cuttings were kept in the bio-dome for 5-7 days and then transplanted to 3″ pots and then acclimated in the growth chamber for two more days. Subsequently, the cuttings were transferred to the greenhouse, acclimated for approximately 4 days, and then subjected to spray tests containing 0, 25, and 50 g ai/ha saflufenacil plus 1% MSO. Herbicide injury evaluations were taken at 7 days after treatment.

## CC(C)N(C)S(=O)(=O)NC(=O)c1cc(-n2c(=O)cc(C(F)(F)F)n(C)c2=O)c(F)cc1Cl [BAS800H, 2-chloro-5-[3,6-dihydro-3-methyl-2,6-dioxo-4-(trifluoromethyl)-1(2H)-pyrimidinyl]-4-fluoro-N-[[methyl(1-methylethyl)amino]sulfonyl]benzamide]
OsICYP81A6; after 24 h incubation in P450-expressing yeast, enzyme not specified (OsICYP81A6 and Sb01g007420.1 named)
  initial content of BAS800H converted into several metabolites: 10%
OsICYP81A6; yeast cells expressing OsICYP81A6, 24 h incubation
  degradation of BAS800H: catalyzed degradation
Sb01g007420.1
  degradation of BAS800H: catalyzed degradation

B1: OsCYP72A15: rice cytochrome P450 CYP72A15 gene/polypeptide, amino acid sequence SEQ ID NO:7 (protein, listed as Oryza sativa)
chain: MLMMLGAASQWILAAAAAAAVAALLWLAVSTLEWAWWTPRRLERALRAQGIRGNRYRLFTGDVPENVRLNREARKKPLPLGCHDIIPRVLPMFSKAVEEHGKPSFTWFGPTPRVMISDPESIREVMSNKFGHYGKPKPTRLGKLLASGVVSYEGEKWAKHRRILNPAFHHEKIKRMLPVFSNCCTEMVTRWENSMSIEGMSEVDVWPEFQNLTGDVISKTAFGSSYEEGRRIFQLQAESAERIIQAFRTIFIPGYWFLPTKNNRRLREIEREVSKLLRGIIGKRERAIKNGETSNGDLLGLLVESNMRESNGKAELGMTTDEIIEECKLFYFAGMETTSVLLTWTLIVLSMHPEWQERAREEVLHHFGRTTPDYDSLSRLKIVTMILYEVLRLYPPVVFLTRRTYKEMELGGIKYPAEVTLMLPILFIHHDPDIWGKDAGEFNPGRFADGISNATKYQTSFFPFGWGPRICIGQNFALLEAKMAICTILQRFSFELSPSYIHAPFTVITLHPQHGAQIKLKKI
[1]
  conferred tolerance to saflufenacil: conferred tolerance

B2: OsICYP81 A: CYP450 gene/polypeptide OsICYP81A6, amino acid sequence SEQ ID NO:29 (protein, listed as Oryza sativa)
chain: MDNAYIIAILSVAILFLLHYYLLGRGNGGAARLPPGPPAVPILGHLHLVKKPMHATMSRLAERYGPVFSLRLGSRRAVVVSSPGCARECFTEHDVTFANRPRFESQLLVSFNGAALATASYGAHWRNLRRIVAVQLLSAHRVGLMSGLIAGEVRAMVRRMYRAAAASPAGAARIQLKRRLFEVSLSVLMETIAHTKATRPETDPDTDMSVEAQEFKQVVDEIIPHIGAANLWDYLPALRWFDVFGVRRKILAAVSRRDAFLRRLIDAERRRLDDGDEGEKKSMIAVLLTLQKTEPEVYTDNMITALTANLFGAGTETTSTTSEWAMSLLLNHPDTLKKAQAEIDASVGNSRLITADDVTRLGYLQCIVRETLRLYPAAPMLLPHESSADCKVGGYNIPRGSMLLINAYAIHRDPAVWEEPEKFMPERFEDGGCDGNLLMPFGMGRRRCPGETLALRTVGLVLGTLIQCFDWERVDGVEVDMTEGGGLTIPKVVPLEAMCRPRDAMGGVLRELV
Transgenic maize plants
  tolerance of segregating T1 maize events (reduced injury scores vs J553 wild type): increased tolerance

B3: OsjCYP81A6: rice cytochrome P450 CYP81A6 gene/polypeptide, amino acid sequence SEQ ID NO:1 (protein, listed as Oryza sativa)
chain: MAFLGWAVDIARDSGASSSVVLTCDGYGSALYFSPWDSVPLPATASPDDGFLLPRFPDVCVQRSQFTNHLAPANGTGGGGSRTGVKEEASEVLSWPPTSKQSVRRLEVAEHWYRLYKTDNQRLSPDSQQVSVLAESHCDLASGNWKEISIHHKKMPSSTTTKTTTPSRDAWIVSARSDPFHLLLEAQAPLGIKADALSQIAAVHQSHRNTSHIRELSLAMDNAYIIAILSVAILFLLHYYLLGRGNGGAARLPPGPPAVPILGHLHLVKKPMHATMSRLAERYGPVFSLRLGSRRAVVVSSPGCARECFTEHDVTFANRPRFESQLLVSFNGAALATASYGAHWRNLRRIVAVQLLSAHRVGLMSGLIAGEVRAMVRRMYRAAAASPAGAARIQLKRRLFEVSLSVLMETIAHTKATRPETDPDTDMSVEAQEFKQVVDEIIPHIGAANLWDYLPALRWFDVFGVRRKILAAVSRRDAFLRRLIDAERRRLDDGDEGEKKSMIAVLLTLQKTEPEVYTDNMITALTANLFGAGTETTSTTSEWAMSLLLNHPDTLKKAQAEIDASVGNSRLITADDVTRLGYLQCIVRETLRLYPAAPMLLPHESSADCKVGGYNIPRGSMLLINAYAIHRDPAVWEEPEKFMPERFEDGGCDGNLLMPFGMGRRRCPGETLALRTVGLVLGTLIQCFDWERVDGVEVDMTEGGGLTIPKVVPLEAMCRPRDAMGGVLRELV
Transgenic maize plants
  tolerance of segregating T1 maize events (reduced injury scores vs J553 wild type): increased tolerance
T0 soybean cuttings
  level of tolerance to saflufenacil in T0 soybean cuttings: greatest level of tolerance

B4: ZmNSF1: corn NSF1 cytochrome P450 gene/polypeptide, amino acid sequence SEQ ID NO:3 (protein)
chain: MDKAYIAALSAAALFLLHYLLGRRAGGEGKAKAKGSRRRLPPSPPAIPFLGHLHLVKAPFHGALARLAARHGPVFSMRLGTRRAVVVSSPDCARECFTEHDVNFANRPLFPSMRLASFDGAMLSVSSYGPYWRNLRRVAAVQLLSAHRVGCMAPAIEAQVRAMVRRMDRAAAAGGGGVARVQLKRRLFELSLSVLMETIAHTKTSRAEADADSDMSTEAHEFKQIVDELVPYIGTANRWDYLPVLRWFDVFGVRNKILDAVGRRDAFLGRLIDGERRRLDAGDESESKSMIAVLLTLQKSEPEVYTDTVITALCANLFGAGTETTSTTTEWAMSLLLNHREALKKAQAEIDAAVGTSRLVTADDVPHLTYLQCIVDETLRLHPAAPLLLPHESAADCTVGGYDVPRGTMLLVNVHAVHRDPAVWEDPDRFVPERFEGAGGKAEGRLLMPFGMGRRKCPGETLALRTVGLVLATLLQCFDWDTVDGAQVDMKASGGLTMPRAVPLEAMCRPRTAMRGVLKRL
modifications: Zea mays
T0 soybean cuttings
  level of tolerance to saflufenacil in T0 soybean cuttings: greatest level of tolerance
[1]
  conferred tolerance to saflufenacil: conferred tolerance
